The target of the assay is Fibronectin (FN) from human plasma (human) (UniProt P02751).
Chain of UniProt P02751 (P02751 32-2477): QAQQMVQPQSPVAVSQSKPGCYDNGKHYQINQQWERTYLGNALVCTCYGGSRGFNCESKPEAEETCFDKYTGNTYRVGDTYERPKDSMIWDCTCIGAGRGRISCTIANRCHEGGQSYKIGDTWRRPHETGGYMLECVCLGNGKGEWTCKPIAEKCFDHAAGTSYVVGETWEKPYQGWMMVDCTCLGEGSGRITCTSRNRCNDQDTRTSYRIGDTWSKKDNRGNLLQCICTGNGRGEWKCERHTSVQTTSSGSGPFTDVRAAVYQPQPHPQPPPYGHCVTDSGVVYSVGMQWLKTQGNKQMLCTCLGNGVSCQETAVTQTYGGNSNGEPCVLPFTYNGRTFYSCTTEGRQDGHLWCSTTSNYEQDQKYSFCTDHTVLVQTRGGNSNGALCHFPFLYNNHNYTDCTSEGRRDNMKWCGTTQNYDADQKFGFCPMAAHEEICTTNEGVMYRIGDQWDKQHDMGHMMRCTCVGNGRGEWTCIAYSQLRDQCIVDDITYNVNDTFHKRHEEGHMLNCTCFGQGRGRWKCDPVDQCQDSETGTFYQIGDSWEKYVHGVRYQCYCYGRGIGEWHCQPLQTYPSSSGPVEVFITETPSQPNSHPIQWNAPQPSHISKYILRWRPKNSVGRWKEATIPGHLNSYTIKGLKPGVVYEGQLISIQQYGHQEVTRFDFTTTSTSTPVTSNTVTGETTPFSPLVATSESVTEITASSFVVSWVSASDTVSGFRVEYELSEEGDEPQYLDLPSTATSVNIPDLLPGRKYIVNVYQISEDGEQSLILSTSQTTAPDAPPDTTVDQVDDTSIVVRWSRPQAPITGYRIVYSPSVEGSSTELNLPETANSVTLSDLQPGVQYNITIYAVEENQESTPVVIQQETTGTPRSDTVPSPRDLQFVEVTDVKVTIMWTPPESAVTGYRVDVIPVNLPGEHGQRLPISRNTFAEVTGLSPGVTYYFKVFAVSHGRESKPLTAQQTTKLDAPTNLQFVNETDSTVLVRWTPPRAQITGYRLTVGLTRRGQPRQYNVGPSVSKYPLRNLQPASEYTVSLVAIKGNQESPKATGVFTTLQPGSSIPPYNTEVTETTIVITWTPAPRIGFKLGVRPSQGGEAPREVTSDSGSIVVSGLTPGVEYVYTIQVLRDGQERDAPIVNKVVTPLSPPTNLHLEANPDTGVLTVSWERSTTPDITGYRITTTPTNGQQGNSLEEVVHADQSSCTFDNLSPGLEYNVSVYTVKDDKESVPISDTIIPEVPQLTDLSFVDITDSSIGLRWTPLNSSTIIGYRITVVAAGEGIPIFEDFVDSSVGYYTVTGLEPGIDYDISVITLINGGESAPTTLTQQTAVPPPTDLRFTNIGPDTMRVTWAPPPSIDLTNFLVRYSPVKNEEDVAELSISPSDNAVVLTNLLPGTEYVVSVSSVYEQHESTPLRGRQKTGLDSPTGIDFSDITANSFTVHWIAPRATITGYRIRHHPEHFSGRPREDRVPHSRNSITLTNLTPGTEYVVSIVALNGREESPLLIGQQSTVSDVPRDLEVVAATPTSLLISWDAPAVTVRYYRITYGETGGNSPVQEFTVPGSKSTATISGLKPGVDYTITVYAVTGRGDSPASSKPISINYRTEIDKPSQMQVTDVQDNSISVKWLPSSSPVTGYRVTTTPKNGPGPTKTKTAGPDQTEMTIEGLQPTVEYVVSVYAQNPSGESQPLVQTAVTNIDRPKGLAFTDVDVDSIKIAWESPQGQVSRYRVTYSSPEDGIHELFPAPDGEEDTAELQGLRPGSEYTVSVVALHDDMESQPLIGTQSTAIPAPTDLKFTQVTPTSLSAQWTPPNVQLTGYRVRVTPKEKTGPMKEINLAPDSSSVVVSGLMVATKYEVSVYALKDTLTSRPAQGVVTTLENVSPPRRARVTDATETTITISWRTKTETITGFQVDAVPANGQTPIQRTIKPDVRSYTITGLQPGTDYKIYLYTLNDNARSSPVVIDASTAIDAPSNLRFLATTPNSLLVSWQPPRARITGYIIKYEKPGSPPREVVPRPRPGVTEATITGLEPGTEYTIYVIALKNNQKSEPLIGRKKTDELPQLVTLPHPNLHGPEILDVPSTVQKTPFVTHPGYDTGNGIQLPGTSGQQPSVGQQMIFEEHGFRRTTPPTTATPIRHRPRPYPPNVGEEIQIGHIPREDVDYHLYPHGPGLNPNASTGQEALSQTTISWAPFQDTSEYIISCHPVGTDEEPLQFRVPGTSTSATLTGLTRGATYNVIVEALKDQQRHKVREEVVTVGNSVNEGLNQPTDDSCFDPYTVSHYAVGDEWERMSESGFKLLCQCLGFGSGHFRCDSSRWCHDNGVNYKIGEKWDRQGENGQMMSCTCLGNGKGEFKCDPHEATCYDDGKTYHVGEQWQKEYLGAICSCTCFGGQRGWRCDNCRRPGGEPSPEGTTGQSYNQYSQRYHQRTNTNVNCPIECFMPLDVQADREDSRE

Consider “Recombinant human αVβ3 integrin (from UniProt P06756;P05106) (receptor)”, for which the fold more bead attachment on FN-coated GO than on FN-coated RGO is 5 fold.

(Values after doi:10.1101/2020.02.11.944678.)
